Data published in publication doi:10.1101/2023.04.07.535877.

Legend:
[1] = biological target: glutamine synthetase type I-α from Methanothermococcus thermolithotrophicus (Methanothermococcus thermolithotrophicus (endogenous, DSM 2095)); experiment: native gel or EMSA
[2] = biological target: glutamine synthetase type I-α from Methanothermococcus thermolithotrophicus (Methanothermococcus thermolithotrophicus (endogenous, DSM 2095)); experiment: crystal structure
[3] = biological target: glutamine synthetase type I-α from Methermicoccus shengliensis (Methermicoccus shengliensis (endogenous, ZC-1, DSM 18856)); experiment: native gel or EMSA
[4] = biological target: glutamine synthetase type I-α from Methermicoccus shengliensis (Methermicoccus shengliensis (endogenous, ZC-1, DSM 18856)); experiment: crystal structure

Row | Substance | stoichiometry N [1] | stoichiometry N [2] | stoichiometry N [3] | stoichiometry N [4]
1 | glutamine synthetase type I-α from Methanothermococcus thermolithotrophicus (enzyme) | 12 | 12 |  | 
2 | glutamine synthetase type I-α from Methermicoccus shengliensis (enzyme) |  |  | 12 | 12
